Results: the supplement of paper PMC9112550, “Optimization of the antimicrobial peptide Bac7 by deep mutational scanning” (BMC Biology, 2022)

Test system: Escherichia coli TOP10
Test: shrunken log2 fold change of peptide-encoding DNA abundance (4.5 h post-induction vs induction); higher = less antimicrobial activity (less host growth inhibition)
Conditions: time post-induction: 4.5 h; library: site-saturation at positions 5, 18, 19, 20
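Also: peptides expressed intracellularly from a pBAD plasmid library in pooled LB shake-flask culture, induced with 0.3% L-arabinose, DNA abundance read by NGS, three biological replicates, DESeq2 with apeglm shrinkage.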

Sequence | shrunken log2 fold change
RRIRGRPPRLPRPRPRPSGAPRP | 0.688
RRIRGRPPRLPRPRPRPSTGPRP | -0.0729
RRIRLRPPRLPRPRPRPYANPRP | -0.165
RRIRERPPRLPRPRPRPMKYPRP | 0.0847
RRIRFRPPRLPRPRPRPPQFPRP | 0.0547
RRIRPRPPRLPRPRPRPVHRPRP | 0.0193
RRIRIRPPRLPRPRPRPLFRPRP | -0.429
RRIRIRPPRLPRPRPRPCCIPRP | -2.25
RRIRVRPPRLPRPRPRPVWSPRP | 0.754
RRIRKRPPRLPRPRPRPLPGPRP | 0.529
RRIRMRPPRLPRPRPRPPMKPRP | -0.0709
RRIRFRPPRLPRPRPRPKTGPRP | 0.072
RRIRFRPPRLPRPRPRPPIMPRP | -0.451
RRIRWRPPRLPRPRPRPSKHPRP | -0.499
RRIRSRPPRLPRPRPRPYNGPRP | -0.0342
RRIRARPPRLPRPRPRPDCGPRP | 0.966
RRIRMRPPRLPRPRPRPSLYPRP | -0.126
RRIRQRPPRLPRPRPRPFRDPRP | -0.117
RRIRTRPPRLPRPRPRPCLSPRP | 0.079
RRIRFRPPRLPRPRPRPKIPPRP | -0.428
RRIRVRPPRLPRPRPRPLRVPRP | 0.543
RRIRQRPPRLPRPRPRPISMPRP | 0.0161
RRIRIRPPRLPRPRPRPFYDPRP | -0.202

Sequence | shrunken log2 fold change
RRIRWRPPRLPRPRPRPGQYPRP | 0.0716
RRIRYRPPRLPRPRPRPPSWPRP | 0.133
RRIRQRPPRLPRPRPRPCSPPRP | 0.0218
RRIRHRPPRLPRPRPRPIDQPRP | 0.0834
RRIRPRPPRLPRPRPRPHSWPRP | 0.069
RRIRDRPPRLPRPRPRPYVYPRP | -0.0147
RRIRLRPPRLPRPRPRPMDKPRP | -0.296
RRIRQRPPRLPRPRPRPYMEPRP | -0.26
RRIRKRPPRLPRPRPRPGMKPRP | 0.516
RRIRIRPPRLPRPRPRPRFHPRP | -0.42
RRIRVRPPRLPRPRPRPMTKPRP | 0.0648
RRIRKRPPRLPRPRPRPRTYPRP | 0.0895
RRIRGRPPRLPRPRPRPCNWPRP | 0.101
RRIRMRPPRLPRPRPRPCMMPRP | -0.124
RRIRLRPPRLPRPRPRPSIFPRP | -0.709
RRIRARPPRLPRPRPRPGHWPRP | 0.628
RRIRSRPPRLPRPRPRPVTTPRP | -0.163
RRIRSRPPRLPRPRPRPTDSPRP | -0.0593
RRIRTRPPRLPRPRPRPHWCPRP | -0.00994
RRIRARPPRLPRPRPRPVRWPRP | 0.88
RRIRYRPPRLPRPRPRPKPDPRP | 0.0117
RRIRVRPPRLPRPRPRPDVTPRP | -0.0394
RRIRSRPPRLPRPRPRPYCCPRP | -0.375

Sequence | shrunken log2 fold change
RRIRMRPPRLPRPRPRPRMLPRP | 0.465
RRIRMRPPRLPRPRPRPGRGPRP | 1.26
RRIRYRPPRLPRPRPRPFGVPRP | -0.306
RRIRIRPPRLPRPRPRPSYRPRP | -0.0544
RRIRTRPPRLPRPRPRPFCPPRP | -0.279
RRIRWRPPRLPRPRPRPFVHPRP | -0.423
RRIRSRPPRLPRPRPRPKVEPRP | 0.213
RRIRIRPPRLPRPRPRPHAYPRP | -0.549
RRIRKRPPRLPRPRPRPMLWPRP | 0.323
RRIRERPPRLPRPRPRPYYMPRP | -0.785
RRIRHRPPRLPRPRPRPNSSPRP | -0.203
RRIRRRPPRLPRPRPRPKYTPRP | -0.000338
RRIRIRPPRLPRPRPRPFVWPRP | -0.157
RRIRGRPPRLPRPRPRPFWTPRP | 0.0497
RRIRSRPPRLPRPRPRPRGTPRP | 0.407
RRIRLRPPRLPRPRPRPPHNPRP | 0.504
RRIRRRPPRLPRPRPRPWPRPRP | 0.349
RRIRQRPPRLPRPRPRPPHQPRP | 0.363
RRIRWRPPRLPRPRPRPPDLPRP | 0.888
RRIRLRPPRLPRPRPRPTIHPRP | -0.3
RRIRCRPPRLPRPRPRPFNRPRP | -0.466
RRIRGRPPRLPRPRPRPCPCPRP | -0.0469
RRIRGRPPRLPRPRPRPAEYPRP | -0.187

Sequence | shrunken log2 fold change
RRIRSRPPRLPRPRPRPCVFPRP | -0.112
RRIRDRPPRLPRPRPRPFKLPRP | 0.0184
RRIRQRPPRLPRPRPRPPAVPRP | 0.408
RRIRWRPPRLPRPRPRPPFVPRP | 0.171
RRIRIRPPRLPRPRPRPWSKPRP | -0.0876
RRIRTRPPRLPRPRPRPECWPRP | 0.53
RRIRTRPPRLPRPRPRPARDPRP | 0.146
RRIRRRPPRLPRPRPRPSHEPRP | -0.252
RRIRSRPPRLPRPRPRPWDYPRP | 0.0318
RRIRRRPPRLPRPRPRPEMFPRP | -0.151
RRIRKRPPRLPRPRPRPNFFPRP | 0.0314
RRIRRRPPRLPRPRPRPHWHPRP | 0.0772
RRIRQRPPRLPRPRPRPQYLPRP | -0.131
RRIRQRPPRLPRPRPRPPFLPRP | 0.186
RRIRQRPPRLPRPRPRPMRQPRP | -0.0137
RRIRMRPPRLPRPRPRPKMKPRP | 1.45
RRIRIRPPRLPRPRPRPNCGPRP | 0.0437
RRIRCRPPRLPRPRPRPWKLPRP | -0.269
RRIRTRPPRLPRPRPRPKLWPRP | 0.401
RRIRFRPPRLPRPRPRPQTVPRP | -0.211
RRIRGRPPRLPRPRPRPDHMPRP | 0.0349
RRIRDRPPRLPRPRPRPEFWPRP | 1.02
